# Data: paper doi:10.1101/2024.09.16.613335, “Structure-guided assembly of an influenza spike nanobicelle vaccine provides pan H1 intranasal protection” (bioRxiv, 2024)
# B1: hemagglutinin (HA) spike on spiked nanobicelles (SNB) purified from the Fluad vaccine (natural protein)
# chain: not shown
# Target: the molecule itself
# Test: cryo-EM structure
protein,measurement,value
B1,stoichiometry N,3
